In article PMC5584245 (Oncotarget, 2017):

B1: chimeric antibody cG7 (antibody, V domains shown)
VH: QVKLEESGGGLVQPGGSLKISCAASGFDFSRYWMSWVRQAPGKGLEWIGEINPDSSTINYTPSLRDKFIISRDNAKNTLYLQMSKVRYEDTSLYYCARQGDYWGQGTSVTVSS
VL: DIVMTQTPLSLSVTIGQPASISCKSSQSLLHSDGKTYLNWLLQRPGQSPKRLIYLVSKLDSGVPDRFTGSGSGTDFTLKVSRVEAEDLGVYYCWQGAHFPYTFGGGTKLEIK
notes: murine VH of G7mAb (G7mAb-VH); human heavy-chain constant region of the chimeric antibody; murine VL of G7mAb (G7mAb-VL); human light-chain constant region of the chimeric antibody; Chimeric: murine G7mAb variable domains on human constant regions; The vectors of the laboratory hold IgG1 H and L chains and the constant region of the humanized antibodies is from Cetuximab; also called parental …
B2: hG7-BM3 (hVH-B2, hVL-B1) (antibody, V domains shown)
VH: QVQLVESGGGVVQPGRSLRLSCAASGFTFSRYWMSWVRQAPGKGLEWIAEINPDSSTINYTPSLRDKFTISRDNSKNTLYLQMSSLRAEDTAVYYCARQGDYWGQGTLVTVSS
VL: DIVMTQTPLSLSVTPGQPASISCKSSQSLLHSDGKTYLNWYLQKPGQSPQRLIYLVSKLDSGVPDRFSGSGSGTDFTLKISRVEAEDVGVYYCWQGAHFPYTFGQGTKLEIK

What was measured:
CD24-GST = biological target: T1, CD24-GST (Homo sapiens, UniProt P25063); assay: SPR; Biacore X100; CD24-GST flowed over immobilized antibody; 1:1 binding model; procedure as in ref. 45; settings: both partners purified
T1 construct: cluster of differentiation 24 (CD24) fused to GST; also called GST-CD24
T1 chain: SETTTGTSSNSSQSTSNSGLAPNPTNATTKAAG

[1] = biological target: T2, membrane CD24 on hepatoma cells (Huh-7, BEL-7402) (Homo sapiens, UniProt P25063); assay: flow cytometry on cells; antibody on Huh-7 and BEL-7402 hepatoma cells, also after RNA interference against CD24; procedure as in ref. 12; settings: one partner purified
T2 construct: cluster of differentiation 24 (CD24), GPI-linked membrane protein, endogenous on human hepatoma cell lines; also called CD24 receptors; CD24 ligand; source: endogenous, on Huh-7 and BEL-7402 cells
T2 chain: T1 chain

Binder	Kd (CD24-GST) [nM]	koff (CD24-GST) [s⁻¹]	kon (CD24-GST) [M⁻¹ s⁻¹]	binding rate to BEL-7402 cells [1] [%]	binding rate to Huh-7 cells [1] [%]
B1	0.191	0.000336	1.76e+06	79.3	88.4
B2	0.57				
